The target of this experiment is human FGFR2b (beta)-Fc (human) (UniProt P21802). Kind of experiment: SPR (Biacore), hFGFR2b-Fc immobilized on CM5 chip, antibody injected at 0-200 nM.

Our source for the Kd, koff and kon values is patent publication US20230055566A1.

On to FPA144 (antibody), for which the Kd was found to be 750 pM, the off-rate (koff) is 7.77e-05 s⁻¹ and the association rate constant (kon) worked out at 104000 M⁻¹ s⁻¹.
